Assay results: patent publication US20130079286A1 (Pieris, published 2013)

What was measured:
[1] = biological target: T1, Trx-Aβ28 fusion protein (Escherichia coli (strain K12), UniProt P0AA25 1-76 = thioredoxin, Biotin-labelled through an NHS ester (2:1) in the capture and competitive ELISAs; unlabeled in the direct ELISA and as competitor.); assay: competitive ELISA: mutein captured, 40 nM biotinylated Trx-Aβ28 as tracer, unlabeled Trx-Aβ28 varied as competitor
T1 construct: the entry may be a nucleic acid; also called TrxAbeta28H6
Description: Alternatively, a “competitive” ELISA was performed in a similar manner as the “capture” ELISA described above. Again, after immobilizing StrepMAB-Immo and washing, 50 μL of a 1 μM solution of the purified Lcn2 mutein from Example 7 was applied to all wells for 1 h. After washing, the biotinylated target Trx-Aβ28 from Example 2 was applied at a fixed concentration of 5 nM (for S1-A4) or 40 nM (for US7) in the presence of varying concentrations of the free non-labeled Trx-Aβ28 target as competitor. Starting with a 100-fold excess, the competitor concentration was decreased by the factor 3 in each step. In this case, the data were fitted to the sigmoidal equation

[2] = biological target: T2, Aβ40 peptide, non-labeled (human); assay: SPOT membrane of overlapping Aβ40 peptides, 100 nM mutein
T2 construct: Non-labeled synthetic peptide (W. M. Keck Laboratory); also called Abeta40; amyloid beta peptide

[3] = biological target: T3, MBP-Aβ40 fusion protein; assay: SPR (Biacore X), MBP-Aβ40 amine-coupled, mutein as analyte
T3 construct: the entry may be a nucleic acid; Biotin-labelled in the capture ELISA, unlabeled in the direct ELISA and SPR; also called MBP-Abeta40
Description: (§1) Real time analysis of Lcn2 muteins was performed on a Biacore X system (Biacore, Uppsala, Sweden) using PBS/T (PBS containing 0.005% (v/v) Tween 20) as running buffer. A 50 μg/mL solution of MBP-Aβ40 from Example 2 in 10 mM Na-acetate, pH 4.5 was immobilized onto a […] chip (Xantec, Düsseldorf, Germany) using standard amine coupling chemistry, resulting in a ligand density of 1455 resonance units (RU). […] The sensorgrams were corrected by subtraction of the corresponding signals measured for the control channel, which had been activated and blocked with ethanolamine. […] During this step the kₒₙ and koff rates were fitted globally, while the maximum response difference Rₘₐₓ was fitted locally for each curve.

[4] = biological target: T3, MBP-Aβ40 fusion protein; assay: direct ELISA: MBP-Aβ40 coated, mutein titrated, detected via Strep-tag II
Description: (§2) The Aβ targets Trx-Aβ28 and MBP-Aβ40 as well as the control protein maltose binding protein (MBP) were immobilized at 2 μM in PBS over night. Bound Lcn2 muteins were detected via their Strep-tag II using Streptavidin/AP followed by a chromogenic reaction with pNPP. As a control, the binding of wild-type (wt) lipocalin was tested. The data were fitted to a monovalent binding model.
(§3) Alternatively, for a “direct” ELISA, 2 μM unlabeled Aβ40 target from Example 2 was adsorbed onto a 96-well MaxiSorp polystyrene microliter plate (Nunc, Langenselbold, Germany) and incubated with the purified Lcn2 mutein, which was detected via the Strep-tag II using a 1:1500 dilution of Streptavidin/AP conjugate (GE Healthcare UK Ltd, Buckinghamshire, UK). As a control, 2 μM MBP from Example 2 was adsorbed onto the ELISA plate. Absorption at 405 nm was measured in a SpectraMax 250 reader (Molecular Devices, Sunnyvale, USA).

[5] = biological target: T1, Trx-Aβ28 fusion protein; assay: direct ELISA: Trx-Aβ28 coated, mutein titrated, detected via Strep-tag II
Description: as §2, §3

[6] = biological target: T3, MBP-Aβ40 fusion protein; assay: SPR (Biacore), MBP-Aβ40 amine-coupled; same experiment as the 1st table, row 20, column 3, printed with more digits
Description: (§4) FIG. 8 depicts the kinetic real time analysis of Lcn2 muteins S1-A4 (A) and US7 (B) measured on a Biacore instrument at a flow rate of 10 μl/min. The MBP-Aβ40 fusion protein was coupled via amine chemistry on a CMD 200I chip (ΔRU=1455) and each of the purified Lcn2 muteins was applied in a series at different concentrations. The measured signal is shown as a grey line whereas the curve fit is depicted as a black line in each case.
as §1

[7] = biological target: T3, MBP-Aβ40 fusion protein; assay: SPR (Biacore), MBP-Aβ40 amine-coupled (1455 RU), mutein as analyte
Description: as §4, §1

[8] = biological target: T4, ovalbumin (UniProt P01012 2-386); assay: capture ELISA: 1 µM Lcn2 protein captured via Strep-tag II on coated StrepMAB-Immo, biotinylated target titrated, ExtrAvidin/AP + pNPP
T4 sequence (looked up): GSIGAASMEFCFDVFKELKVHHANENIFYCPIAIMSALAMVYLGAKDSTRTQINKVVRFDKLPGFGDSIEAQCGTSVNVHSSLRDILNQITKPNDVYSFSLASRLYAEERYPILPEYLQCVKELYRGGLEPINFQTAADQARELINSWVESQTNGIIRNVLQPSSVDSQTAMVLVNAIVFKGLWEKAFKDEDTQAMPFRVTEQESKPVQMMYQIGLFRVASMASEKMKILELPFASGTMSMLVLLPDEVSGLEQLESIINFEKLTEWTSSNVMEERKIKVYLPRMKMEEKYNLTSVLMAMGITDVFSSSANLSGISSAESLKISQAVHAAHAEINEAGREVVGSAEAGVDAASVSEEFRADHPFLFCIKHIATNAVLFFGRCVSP
Description: (§5) FIG. 5 depicts the binding activity of the Lcn2 muteins H1-G1, S1-A4, and US7 in capture ELISAs with different biotinylated Aβ targets. StrepMAB-Immo at 10 μg/ml was immobilized on microtitre plates and employed for capturing of 1 JAM Lcn2 muteins via the Strep-tag H. In figures A to C the binding of the Lcn2 muteins S1-A4 and US7 to (A) biotinylated Aβ40, (B) biotinylated Trx-Aβ28, and (C) biotinylated MBP-Aβ40 are shown. Binding was detected by incubation with ExtrAvidin/AP and a subsequent chromogenic reaction with pNPP. Ovalbumin (Ova), thioredoxin (Trx), and maltose binding protein (MBP) were used as negative controls. Additionally, binding of wild-type (wt) lipocalin was tested. The data were fitted to a monovalent binding model.
(§6) For selective capturing of the Lcn2 muteins carrying the C-terminal Strep-tag II (Schmidt and Skerra (2007) Nat. Protoc. 2, 1528-1535), a 96-well MaxiSorp polystyrene microtitre plate (Nunc, Langenselbold, Germany) was coated with 10 μg/mL StrepMAB-Immo (IBA, Göttingen, Germany) in PBS over night at 4° C. and blocked with 3% (w/v) BSA in PBS/T at room temperature for 1 h. After 3 washing steps with PBS/T, 50 μL of a 1 μM solution of the purified Lcn2 muteins from Example 7 were applied to all wells for 1 h. After washing, 50 μL of a dilution series of the biotinylated targets Aβ40, MBP-Aβ40 or Trx-Aβ28 from Example 2 were added and incubated for 1 h whereby the biotinylated forms of Ova, MBP and Trx from Example 2 served as negative control proteins. The wells were washed again and bound conjugate was detected with 50 μL of ExtrAvidin/AP conjugate (Sigma-Aldrich, Steinheim, Germany) diluted 1:5000 in PBS/T for 1 h, followed by signal development in the presence of 100 μL 0.5 mg/mL p-nitrophenyl phosphate (AppliChem, Darmstadt, Germany) in 100 mM Tris/HCl, pH 8.8, 100 mM NaCl, 5 mM MgCl₂.

[9] = biological target: T5, central peptide Aβ16-27; assay: capture ELISA: mutein captured, Aβ16-27 titrated
T5 construct: Bought from the Peptide Speciality Laboratory
T5 peptide: KLVFFAEDVGSN

[10] = biological target: T6, biotinylated Aβ40 peptide (human, C-terminal biotin group attached via a lysine spacer); assay: capture ELISA: mutein captured via Strep-tag II on StrepMAB-Immo, biotinylated Aβ40 titrated
T6 construct: Synthetic peptide (Peptide Speciality Laboratory) with a C-terminal biotin on a lysine spacer; used in the capture ELISAs
Description: as §5, §6

[11] = biological target: T3, MBP-Aβ40 fusion protein; assay: capture ELISA: mutein captured, biotinylated MBP-Aβ40 titrated
Description: as §5
For selective capturing of the Lcn2 muteins carrying the C-terminal Strep-tag II (Schmidt and Skerra (2007) Nat. Protoc. 2, 1528-1535), a 96-well MaxiSorp polystyrene microtitre plate (Nunc, Langenselbold, Germany) was coated with 10 μg/mL StrepMAB-Immo (IBA, Göttingen, Germany) in PBS over night at 4° C. and blocked with 3% (w/v) BSA in PBS/T at room temperature for 1 h. After 3 washing steps with PBS/T, 50 μL of a 1 μM solution of the purified Lcn2 muteins from Example 7 were applied to all wells for 1 h. […]

[12] = biological target: T1, Trx-Aβ28 fusion protein; assay: capture ELISA: mutein captured, biotinylated Trx-Aβ28 titrated
Description: as §5, §6

[13] = biological target: T2, Aβ40 peptide, non-labeled; assay: SPOT membrane of overlapping Aβ40 peptides
[14] = biological target: T1, Trx-Aβ28 fusion protein; assay: capture ELISA: 1 µM Lcn2 protein captured via Strep-tag II on coated StrepMAB-Immo, biotinylated target titrated, ExtrAvidin/AP + pNPP
Description: as §5, §6

[15] = biological target: T6, biotinylated Aβ40 peptide; assay: as above
Description: as §5, §6

[16] = biological target: T7, recombinant human fibronectin fragment FN7B8 (human, UniProt P02751 1173-1448); assay: ELISA: FN7B8 coated, Lcn2 protein titrated, detected via Strep-tag II with Streptavidin-alkaline phosphatase + pNPP
T7 construct: no separate number is printed for the protein, so the entry may be a nucleic acid
Description: FIG. 12 depicts binding activity in the ELISA. A microliter plate was coated with the purified proteins FN7B8 and FN789 and incubated with a dilution series of the selected Lcn2 muteins, followed by detection with Streptavidin-alkaline-phosphatase conjugate and pNPP substrate.
To adsorb FN7B8 or FN789 onto the surface of a 96-well Nunc Maxisorp plate (Thermo Fisher Scientific, Langenselbold, Germany) 50 μl of a 100 μg/ml protein solution in TBS/E was added per well and incubated at room temperature for 2 h. Additionally, to include control proteins, blank wells were exposed to 120 μl 2% (w/v) BSA (AppliChem, Darmstadt, Germany) in TBS/ET. […] The wells were washed again and bound Lcn2 muteins were detected with 50 μL of Streptavidin-alkaline phosphatase conjugate (GE Healthcare, Munich, Germany) diluted 1:1500 in TBS/T for 1 h, followed by signal development in the presence of 50 μl 0.5 mg/ml p-nitrophenyl phosphate in 100 mM Tris/HCl, 100 mM NaCl, 5 mM MgCl₂, pH 8.8. The time course of absorption AA/At at 405 nm was measured in a SpectraMax 250 reader (Molecular Devices, Sunnyvale, Calif.) and the data were fitted with KaleidaGraph software (Synergy software, Reading, Pa.) to the equation

T6 sequence (peptide, as listed by the source): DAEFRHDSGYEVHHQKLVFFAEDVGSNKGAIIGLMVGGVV
T2 sequence (peptide, as listed by the source): as above
T7 sequence (P02751 other isoform, or with tags, fused parts or gaps limits assumed): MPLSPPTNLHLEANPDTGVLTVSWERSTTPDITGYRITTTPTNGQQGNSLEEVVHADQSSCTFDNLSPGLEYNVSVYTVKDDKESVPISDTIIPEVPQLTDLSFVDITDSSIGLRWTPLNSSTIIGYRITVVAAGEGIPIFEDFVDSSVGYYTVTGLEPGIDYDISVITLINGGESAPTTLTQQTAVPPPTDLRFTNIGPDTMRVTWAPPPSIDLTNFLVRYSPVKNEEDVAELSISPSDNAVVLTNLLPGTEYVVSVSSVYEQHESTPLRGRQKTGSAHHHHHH

Row | Binder | Kd [1] | binding result [2] | Kd [3] | Kd [4] | Kd [5] | Kd [6] | koff [7] | kon [7] | binding result [8] | Kd [9] | Kd [10] | Kd [11] | Kd [12] | binding result [13] | binding result [14] | binding result [15] | binding result [16]
1 | Lcn2 mutein US7 (designed binder) QDSTSDLIPAPPLSKVPLQQNFQDNQFHGKWYVVGVAGNKSLREDKDPWKMYATIYELKEDKSYNVTSVGFGTKKCHYKIRTFVPGSQPGEFTLGRIKSRPGRTSALVRVVSTNYNQHAMVFFKVVQQNRESFNITLYGRTKELTSELKENFIRFSKSLGLPENHIVFPVPIDQCIDG | 76.9 nM | binds | 1.3 nM | 49.7 nM | 9.6 nM | 1.25 nM | 0.000252 s⁻¹ | 202000 M⁻¹ s⁻¹ | no binding (tested: 250 nM) | 2.1 nM | 6.8 nM | 11.4 nM | 2.4 nM |  |  |  | 
2 | recombinant wild-type human Lipocalin 2 (other, also called wt Lcn2; wild type Lcn2) QDSTSDLIPAPPLSKVPLQQNFQDNQFQGKWYVVGLAGNAILREDKDPQKMYATIYELKEDKSYNVTSVLFRKKKCDYWIRTFVPGSQPGEFTLGNIKSYPGLTSYLVRVVSTNYNQHAMVFFKKVSQNREYFKITLYGRTKELTSELKENFIRFSKSLGLPENHIVFPVPIDQCIDG |  |  |  |  |  |  |  |  | no binding (tested: 250 nM) |  |  |  |  | no binding (tested: 100 nM) | no binding | no binding | no binding (tested: 250 nM)
